The record followed here is publication PMC7035337, “Binding of the periplakin linker requires vimentin acidic residues D176 and E187” (Communications Biology, 2020).

Values joined by “and” are separate entries in the source; they are usually repeats but may differ in a detail not shown here. Equal values may be shown once.

The labels stand for the following.
B8: vimentinROD, wild-type (residues T99-I249, coils 1A and 1B) (domain or fragment)
chain: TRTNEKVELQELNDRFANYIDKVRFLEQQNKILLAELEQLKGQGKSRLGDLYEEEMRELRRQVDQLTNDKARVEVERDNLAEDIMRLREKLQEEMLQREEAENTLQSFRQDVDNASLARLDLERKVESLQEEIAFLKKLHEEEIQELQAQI
modifications: NT647 fluorescent dye (Monolith NT His-Tag Labelling Kit RED-tris-NTA)
notes: human vimentin, residues T99-I249; Non-cleavable His tag

What all share (conditions): both partners purified
The target of experiment [1] is T1, vimentin^ROD (residues T99–I249), wild-type (human, UniProt P08670 99-249, NT647 fluorescent dye (Monolith NT His-Tag Labelling Kit RED-tris-NTA)).
T1 construct: vimentin, human, coils 1A and 1B of the central rod domain, residues T99-I249; Non-cleavable His tag; also called wild-type vimentin^ROD
T1 sequence (P08670 99-249): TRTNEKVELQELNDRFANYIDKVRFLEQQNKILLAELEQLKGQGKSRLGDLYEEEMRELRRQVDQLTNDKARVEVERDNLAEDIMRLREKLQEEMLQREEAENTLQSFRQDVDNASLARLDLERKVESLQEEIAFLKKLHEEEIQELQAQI
As to the kind of experiment: MST; 50 nM NT647-labelled vimentin^ROD, linker titrated 780 nM to 800 uM; 150 mM NaCl, 20 mM HEPES pH 7.5, 0.015% Tween 20; 25 C; one-site binding model.

Experiment [2] has as its target B8. The experiment in a line: MST; 50 nM NT647-labelled vimentinROD, linker titrated 780 nM to 800 μM; 150 mM NaCl, 20 mM HEPES pH 7.5, 0.015% Tween 20; 25 °C; MST-on time 5 s; one-ligand binding model; single experiments or merged data sets.
Experiment [3] concerns the target T2, vimentinROD E172K (human, UniProt P08670 99-249, E172K, NT647 fluorescent dye (Monolith NT His-Tag Labelling Kit RED-tris-NTA)).
T2 construct: human vimentin, residues T99-I249
The description is as above.

For experiment [4], the target named is T3, vimentinROD E180K (human, UniProt P08670 99-249, E180K, NT647 fluorescent dye (Monolith NT His-Tag Labelling Kit RED-tris-NTA)).
T3 construct: human vimentin, residues T99-I249
T3 sequence (P08670 99-249 E180K): as the sequence (P08670 99-249) above, with E82K counted along it
The experiment is described as above.

Experiment [5] concerns the target B8. The experiment in a line: MST; as a1 but 50 mM NaCl: 50 nM NT647-labelled vimentinROD, periplakin linker titrated; 25 °C; one-ligand binding model.
Experiment [6] has as its target B8. The experiment in a line: MST; as a1 but 10 mM NaCl: 50 nM NT647-labelled vimentinROD, periplakin linker titrated; 25 °C; one-ligand binding model.
The target in experiment [7] is T4, vimentin^ROD (residues T99–I249) E180K (human, UniProt P08670 99-249, E180K, NT647 fluorescent dye (Monolith NT His-Tag Labelling Kit RED-tris-NTA)).
T4 construct: vimentin, human, coils 1A and 1B of the central rod domain, residues T99-I249
T4 sequence (P08670 99-249 E180K): as the sequence (P08670 99-249) above, with E82K counted along it
The experiment in a line: MST; 50 nM NT647-labelled vimentin^ROD, linker titrated 780 nM to 800 uM; 150 mM NaCl, 20 mM HEPES pH 7.5, 0.015% Tween 20; 25 C; one-site binding model.

Experiment [8] concerns the target T5, vimentin^ROD (residues T99–I249) E229K (human, UniProt P08670 99-249, E229K, NT647 fluorescent dye (Monolith NT His-Tag Labelling Kit RED-tris-NTA)).
T5 construct: vimentin, human, coils 1A and 1B of the central rod domain, residues T99-I249
The experiment is described as above.

In experiment [9] the target is T6, vimentin^ROD (residues T99–I249) E172K (human, UniProt P08670 99-249, E172K, NT647 fluorescent dye (Monolith NT His-Tag Labelling Kit RED-tris-NTA)).
T6 construct: vimentin, human, coils 1A and 1B of the central rod domain, residues T99-I249
T6 sequence (P08670 99-249 E172K): as the sequence (P08670 99-249) above, with E74K counted along it
The description is as above.

For experiment [10], the target named is T7, vimentin^ROD (residues T99–I249) D162K (human, UniProt P08670 99-249, D162K, NT647 fluorescent dye (Monolith NT His-Tag Labelling Kit RED-tris-NTA)).
T7 construct: vimentin, human, coils 1A and 1B of the central rod domain, residues T99-I249
T7 sequence (P08670 99-249 D162K): as the sequence (P08670 99-249) above, with D64K counted along it
The description is as above.

Experiment [11] concerns the target T1, vimentin^ROD (residues T99–I249), …. As to the kind of experiment: MST; as the standard MST assay (50 nM labelled vimentin^ROD, linker titrated) but in 10 mM NaCl.
The target of experiment [12] is T8, vimentin^ROD (residues T99–I249) D176K (human, UniProt P08670 99-249, D176K, NT647 fluorescent dye (Monolith NT His-Tag Labelling Kit RED-tris-NTA)).
T8 construct: vimentin, human, coils 1A and 1B of the central rod domain, residues T99-I249; also called D176K vimentin^ROD; vimentin mutant D176K
T8 sequence (P08670 99-249 D176K): as the sequence (P08670 99-249) above, with D78K counted along it
As to the kind of experiment: MST; 50 nM NT647-labelled vimentin^ROD, linker titrated 780 nM to 800 uM; 150 mM NaCl, 20 mM HEPES pH 7.5, 0.015% Tween 20; 25 C; one-site binding model.

The target of experiment [13] is T9, periplakin linker domain K1687E/R1689E (human, UniProt O60437 1646-1756, K1687E | R1689E).
T9 construct: human periplakin linker domain, residues K1646-K1756
T9 sequence (looked up): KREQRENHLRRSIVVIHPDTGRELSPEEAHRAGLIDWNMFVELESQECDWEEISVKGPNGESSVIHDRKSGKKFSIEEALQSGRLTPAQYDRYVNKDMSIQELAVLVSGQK
The experiment in a line: MST; 50 nM NT647-labelled vimentinROD, linker titrated 780 nM to 800 μM; 150 mM NaCl, 20 mM HEPES pH 7.5, 0.015% Tween 20; 25 °C; MST-on time 5 s; one-ligand binding model; single experiments or merged data sets.

The target in experiment [14] is T10, periplakin linker domain R1737E/K1741E (human, UniProt O60437 1646-1756, R1737E | K1741E).
T10 construct: human periplakin linker domain, residues K1646-K1756
T10 sequence (looked up): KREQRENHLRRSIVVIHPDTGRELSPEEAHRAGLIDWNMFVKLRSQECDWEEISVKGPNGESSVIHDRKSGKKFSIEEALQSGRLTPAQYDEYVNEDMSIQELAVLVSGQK
The experiment is described as above.

Experiment [15] has as its target T11, periplakin linker domain R1713E/K1714E (human, UniProt O60437 1646-1756, R1713E | K1714E).
T11 construct: human periplakin linker domain, residues K1646-K1756
T11 sequence (looked up): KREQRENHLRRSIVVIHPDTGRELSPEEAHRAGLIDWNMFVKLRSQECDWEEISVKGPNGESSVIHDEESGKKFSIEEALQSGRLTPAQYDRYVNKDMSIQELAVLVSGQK
The description is as above.

In experiment [16] the target is T12, periplakin linker domain R1655E/R1656E (human, UniProt O60437 1646-1756, R1655E | R1656E).
T12 construct: human periplakin linker domain, residues K1646-K1756
T12 sequence (looked up): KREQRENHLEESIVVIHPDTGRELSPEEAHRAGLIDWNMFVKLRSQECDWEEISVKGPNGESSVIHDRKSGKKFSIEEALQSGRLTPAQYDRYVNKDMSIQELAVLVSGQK
The description is as above.

In experiment [17] the target is T13, periplakin linker domain R1713E (human, UniProt O60437 1646-1756, R1713E).
T13 construct: human periplakin linker domain, residues K1646-K1756; also called Periplakin R1713E
T13 sequence (looked up): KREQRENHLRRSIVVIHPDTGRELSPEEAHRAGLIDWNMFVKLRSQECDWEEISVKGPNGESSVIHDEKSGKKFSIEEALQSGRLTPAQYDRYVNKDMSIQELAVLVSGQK
The experiment is described as above.

In general, Kd refers to the equilibrium constant for the complex coming apart. Low readings indicate tighter binding, high ones weaker binding.

T2 sequence (P08670 99-249 E172K): as the sequence (P08670 99-249) above, with E74K counted along it
T5 sequence (P08670 99-249 E229K): as the sequence (P08670 99-249) above, with E131K counted along it

B1: desmoplakin linker domain (Q2454–N2565) E2495K/C2497R (domain or fragment, human, UniProt P15924 2454-2565, looked up)
chain: QTSQKNTLRKRRVVIVDPETNKEMSVQEAYKKGLIDYETFKKLREQECEWEEITITGSDGSTRVVLVDRKTGSQYDIQDAIDKGLVDRKFFDQYRSGSLSLTQFADMISLKN
notes: desmoplakin linker domain, human, residues Q2454-N2565
B1 gave a Kd in experiment [1] of 600 ± 70 µM.

B2: periplakin linker domain, wild-type (residues K1646-K1756) (domain or fragment, human)
chain: KREQRENHLRRSIVVIHPDTGRELSPEEAHRAGLIDWNMFVKLRSQECDWEEISVKGPNGESSVIHDRKSGKKFSIEEALQSGRLTPAQYDRYVNKDMSIQELAVLVSGQK
notes: human periplakin linker domain, residues K1646-K1756; also called Periplakin Linker Wild-type
As for B2, the Kd was 59 µM and 66 µM and 70 µM and 85 µM in [2]; 26 µM and 24 µM and 27 µM and 29 µM in experiment [3]; 8 µM and 4 µM and 3 µM and 5.7 µM in experiment [4]; 59 µM and 69 µM and 71 µM and 66 µM in experiment [5]; 31 µM and 32 µM and 30.2 µM in experiment [6].

B3: periplakin linker domain (K1646–K1756), wild-type (domain or fragment, human, UniProt O60437 1646-1756, looked up)
chain: KREQRENHLRRSIVVIHPDTGRELSPEEAHRAGLIDWNMFVKLRSQECDWEEISVKGPNGESSVIHDRKSGKKFSIEEALQSGRLTPAQYDRYVNKDMSIQELAVLVSGQK
notes: periplakin linker domain, human, residues K1646-K1756; Vector pGEX-6P-1; also called wild-type periplakin linker; WT
Take B3: the Kd in experiment [1] was 70.5 ± 3.8 µM; in experiment [7] it was 6 ± 2 µM; in experiment [8] it was 16 ± 2 µM; in experiment [9], 27 ± 4 µM; in experiment [10], 68 ± 4 µM; in experiment [11] it was 31 ± 2 µM.

B4: periplakin linker domain (K1646–K1756) R1737E/K1741E (domain or fragment, human, UniProt O60437 1646-1756, looked up)
chain: KREQRENHLRRSIVVIHPDTGRELSPEEAHRAGLIDWNMFVKLRSQECDWEEISVKGPNGESSVIHDRKSGKKFSIEEALQSGRLTPAQYDEYVNEDMSIQELAVLVSGQK
notes: periplakin linker domain, human, residues K1646-K1756; also called control double mutant
In turn, B4 came in with a Kd in experiment [1] of 48 ± 11 µM.

B5: periplakin linker domain (K1646–K1756) R1655E/R1656E (domain or fragment, human, UniProt O60437 1646-1756, looked up)
chain: KREQRENHLEESIVVIHPDTGRELSPEEAHRAGLIDWNMFVKLRSQECDWEEISVKGPNGESSVIHDRKSGKKFSIEEALQSGRLTPAQYDRYVNKDMSIQELAVLVSGQK
notes: periplakin linker domain, human, residues K1646-K1756
Molecule B5 showed an equilibrium dissociation constant (Kd) in experiment [1] of 380 ± 51 µM.

B6: periplakin linker domain (K1646–K1756) R1713E/K1714E (domain or fragment, human, UniProt O60437 1646-1756, looked up)
chain: KREQRENHLRRSIVVIHPDTGRELSPEEAHRAGLIDWNMFVKLRSQECDWEEISVKGPNGESSVIHDEESGKKFSIEEALQSGRLTPAQYDRYVNKDMSIQELAVLVSGQK
notes: as for B5
B6 yielded a Kd in experiment [1] of 135 ± 30 µM.

B7: periplakin linker domain (K1646–K1756) R1713E (domain or fragment, human, UniProt O60437 1646-1756, looked up)
chain: KREQRENHLRRSIVVIHPDTGRELSPEEAHRAGLIDWNMFVKLRSQECDWEEISVKGPNGESSVIHDEKSGKKFSIEEALQSGRLTPAQYDRYVNKDMSIQELAVLVSGQK
notes: periplakin linker domain, human, residues K1646-K1756; also called periplakin mutant R1713E; periplakin linker mutant R1713E
For the molecule B7, the equilibrium dissociation constant (Kd) in experiment [12] was found to be 23 ± 4 µM; in experiment [1], 200 ± 29 µM.

On to B8, for which the Kd in experiment [13] is 312 µM and 306 µM and 273 µM; in experiment [14] it was 57 µM and 43 µM and 29 µM and 47.9 µM; in experiment [15] it was 143 µM and 145 µM and 123 µM; in [16], 351 µM and 382 µM and 444 µM; in experiment [17], 210 µM and 160 µM and 240 µM.

B9: periplakin linker domain (K1646–K1756) K1687E/R1689E (domain or fragment, human, UniProt O60437 1646-1756, looked up)
chain: KREQRENHLRRSIVVIHPDTGRELSPEEAHRAGLIDWNMFVELESQECDWEEISVKGPNGESSVIHDRKSGKKFSIEEALQSGRLTPAQYDRYVNKDMSIQELAVLVSGQK
notes: as for B5
Regarding B9, the Kd in experiment [1] was 300 ± 54 µM.
